Experimental data from PMC5884809, “ETV2-TET1/TET2 Complexes Induce Endothelial Cell-Specific Robo4 Expression via Promoter Demethylation”.

What was measured:
ETV2 [1] = biological target: T1, ETV2 (UniProt O00321 1-342); assay: EMSA; strongest shift of the four; abolished by 50-fold WT competitor; EMSA: 3 µl TNT ETV2, 30 min at 4 °C; 4% native polyacrylamide gel, 0.5x TBE, 120 V 2 h; binding buffer, salt and pH not stated; settings: protein: ivt; label: 32P (probe); blunt
T1 sequence: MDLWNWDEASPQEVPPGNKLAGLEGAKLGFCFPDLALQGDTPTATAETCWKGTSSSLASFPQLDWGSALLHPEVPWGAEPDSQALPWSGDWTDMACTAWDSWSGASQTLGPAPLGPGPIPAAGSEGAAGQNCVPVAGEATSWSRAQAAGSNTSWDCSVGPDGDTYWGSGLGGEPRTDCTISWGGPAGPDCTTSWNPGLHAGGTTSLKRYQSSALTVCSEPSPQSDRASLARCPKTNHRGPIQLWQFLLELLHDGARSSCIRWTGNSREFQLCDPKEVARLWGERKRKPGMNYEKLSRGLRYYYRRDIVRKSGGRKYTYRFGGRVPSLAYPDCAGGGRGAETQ

ETV2 [2] = biological target: T1, ETV2; assay: EMSA; second strongest shift; abolished by 50-fold WT competitor; EMSA: 3 µl TNT ETV2, 30 min at 4 °C; 4% native polyacrylamide gel, 0.5x TBE, 120 V 2 h; binding buffer, salt and pH not stated; settings: protein: ivt; label: 32P (probe); blunt
ETV2 [3] = biological target: T1, ETV2; assay: EMSA; third strongest shift; abolished by 50-fold WT competitor; EMSA: 3 µl TNT ETV2, 30 min at 4 °C; 4% native polyacrylamide gel, 0.5x TBE, 120 V 2 h; binding buffer, salt and pH not stated; settings: protein: ivt; label: 32P (probe); blunt
ETV2 [4] = biological target: T1, ETV2; assay: EMSA; least pronounced shift of the four; abolished by 50-fold WT competitor; EMSA: 3 µl TNT ETV2, 30 min at 4 °C; 4% native polyacrylamide gel, 0.5x TBE, 120 V 2 h; binding buffer, salt and pH not stated; settings: protein: ivt; label: 32P (probe); blunt
ETV2 [5] = biological target: T1, ETV2; assay: competition; 50-fold excess vs ETS(1) probe, EMSA; EMSA: 3 µl TNT ETV2, 30 min at 4 °C; 4% native polyacrylamide gel, 0.5x TBE, 120 V 2 h; binding buffer, salt and pH not stated; settings: protein: ivt; blunt
ETV2 [6] = biological target: T1, ETV2; assay: competition; 50-fold excess vs ETS(2) probe, EMSA; EMSA: 3 µl TNT ETV2, 30 min at 4 °C; 4% native polyacrylamide gel, 0.5x TBE, 120 V 2 h; binding buffer, salt and pH not stated; settings: protein: ivt; blunt ends, 2 internal mismatches as printed
ETV2 [7] = biological target: T1, ETV2; assay: competition; 50-fold excess vs ETS(3) probe, EMSA; EMSA: 3 µl TNT ETV2, 30 min at 4 °C; 4% native polyacrylamide gel, 0.5x TBE, 120 V 2 h; binding buffer, salt and pH not stated; settings: protein: ivt; blunt
ETV2 [8] = biological target: T1, ETV2; assay: competition; 50-fold excess vs ETS(4) probe, EMSA; EMSA: 3 µl TNT ETV2, 30 min at 4 °C; 4% native polyacrylamide gel, 0.5x TBE, 120 V 2 h; binding buffer, salt and pH not stated; settings: protein: ivt; blunt

B1: ETS(1) (dsDNA)
DNA 1: GGGCCAGGCAGGAAGCATCGG
DNA 2: CCGATGCTTCCTGCCTGGCCC
binding result (ETV2 [1]): binds

B2: ETS(2) (dsDNA)
DNA 1: CATCGGTTTCCTCAAAGCCGC
DNA 2: GCGGCTTTGAGGAAACCGATG
binding result (ETV2 [2]): binds

B3: ETS(3) (dsDNA)
DNA 1: CAAAGCCGCTTCCCTCCTGGG
DNA 2: CCCAGGAGGGAAGCGGCTTTG
binding result (ETV2 [3]): binds

B4: ETS(4) (dsDNA)
DNA 1: CCCCTCCTTCCCTCTTCACTG
DNA 2: CAGTGAAGAGGGAAGGAGGGG
binding result (ETV2 [4]): binds

B5: ETS(1)mut (dsDNA)
DNA 1: GGGCCAGGCACCTAGCATCGG
DNA 2: CCGATGCTAGGTGCCTGGCCC
binding result (ETV2 [5]): no binding

B6: ETS(2)mut (dsDNA)
DNA 1: CATCGGTTAGGTTCAAGCCGC
DNA 2: GCGGCTTTGACCTAACCGATG
binding result (ETV2 [6]): no binding

B7: ETS(3)mut (dsDNA)
DNA 1: CAAAGCCGCTAGGCTCCTGGG
DNA 2: CCCAGGAGCCTAGCGGCTTTG
binding result (ETV2 [7]): no binding

B8: ETS(4)mut (dsDNA)
DNA 1: CCCCTCCTAGGCTCTTCACTG
DNA 2: CAGTGAAGAGCCTAGGAGGGG
binding result (ETV2 [8]): no binding
